Laboratory results taken from article PMC5014550, “Mitochondrial Bol1 and Bol3 function as assembly factors for specific iron-sulfur proteins” (eLife, 2016).

T1: human GLRX5, protein used for NMR (human, UniProt Q86SX6 32-157)
T1 construct: human mitochondrial monothiol glutaredoxin GLRX5; Used as apo form with 5 mM GSH, or chemically reconstituted with a [2Fe-2S] cluster; the assay's format says which; also called apo-GLRX5; holo-GLRX5; source: produced as previously reported (Banci et al., 2014)
T1 sequence (looked up): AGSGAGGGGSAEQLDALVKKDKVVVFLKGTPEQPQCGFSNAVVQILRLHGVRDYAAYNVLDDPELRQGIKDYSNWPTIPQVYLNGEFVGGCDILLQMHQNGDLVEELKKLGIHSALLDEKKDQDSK

T2: human NFU1 (residues 57-254) with N-terminal His-tag (human, UniProt Q9UMS0 57-254)
T2 chain: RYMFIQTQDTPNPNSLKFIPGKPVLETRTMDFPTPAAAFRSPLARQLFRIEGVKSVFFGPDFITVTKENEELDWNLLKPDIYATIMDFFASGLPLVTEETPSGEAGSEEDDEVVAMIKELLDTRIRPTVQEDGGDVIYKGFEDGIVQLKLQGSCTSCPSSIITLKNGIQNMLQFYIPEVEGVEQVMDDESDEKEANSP

T3: human NFU1 (residues 57-254) with N-terminal His-tag (human, UniProt Q9UMS0 57-254)
T3 construct: Used as apo form or chemically reconstituted holo form carrying a [4Fe-4S] cluster; the assay's format says which; also called apo-NFU1; holo-NFU1; source: E. coli BL21 (DE3), pET-Duet1, purified (HisTrap HP, Superdex 200 gel filtration)
T3 sequence (looked up): T2 chain

B1: human GLRX5 (residues 32-157) with N-terminal His-tag (natural protein, UniProt Q86SX6 32-157, looked up)
chain: T1 sequence (looked up)
notes: Chemically reconstituted with a [2Fe-2S] cluster (holo form, >85% holo); holo-GLRX5 alone eluted as a homodimer; also called holo-GLRX5; source: E. coli BL21 (DE3), pET-Duet1, purified (HisTrap HP, Superdex 200 gel filtration)
B2: human BOLA3 (residues 27-107), NMR construct (natural protein, UniProt Q53S33 27-107, looked up)
chain: ATQTEGELRVTQILKEKFPRATAIKVTDISGGCGAMYEIKIESEEFKEKRTVQQHQMVNQALKEEIKEMHGLRIFTSVPKR
notes: human BOLA3, residues 27-107, construct for NMR; 15N- or 13C,15N-labelled where observed by NMR; His-tag cleaved by tobacco etch virus protease; also called 15N-labeled BOLA3; source: E. coli BL21(DE3)GOLD, pET15 vector, purified; not shown: His-tag, N-terminal, cleaved
B3: human BOLA1 (residues 21-137), NMR construct (natural protein, UniProt Q9Y3E2 21-137, looked up)
chain: QGSAGSGAIGPVEAAIRTKLEEALSPEVLELRNESGGHAVPPGSETHFRVAVVSSRFEGLSPLQRHRLVHAALAEELGGPVHALAIQARTPAQWRENSQLDTSPPCLGGNKKTLGTP
notes: human BOLA1, residues 21-137, construct for NMR; 15N- or 13C,15N-labelled where observed by NMR; His-tag cleaved by tobacco etch virus protease; also called 15N-labeled BOLA1; source: E. coli BL21(DE3)GOLD, pETG20A vector, purified; not shown: His-tag, N-terminal, cleaved
B4: human BOLA3 (residues 25-107) with N-terminal His-tag (natural protein, UniProt Q53S33 25-107, looked up)
chain: MFATQTEGELRVTQILKEKFPRATAIKVTDISGGCGAMYEIKIESEEFKEKRTVQQHQMVNQALKEEIKEMHGLRIFTSVPKR
notes: Labelled with NT-647 dye in MST; source: E. coli BL21 (DE3), pET-Duet1, purified (HisTrap HP, Superdex 200 gel filtration)
B5: human BOLA1 (residues 30-137) with N-terminal His-tag (natural protein, UniProt Q9Y3E2 30-137, looked up)
chain: GPVEAAIRTKLEEALSPEVLELRNESGGHAVPPGSETHFRVAVVSSRFEGLSPLQRHRLVHAALAEELGGPVHALAIQARTPAQWRENSQLDTSPPCLGGNKKTLGTP
notes: as for B4

What was measured:
[1] = molecular target: the molecule itself; experiment: SEC; gel filtration in buffer R of holo-GLRX5 alone, co-reconstituted equimolar GLRX5-BOLA1 and holo-GLRX5-BOLA3, recorded at 420 nm and 280 nm; fractions analysed by Coomassie and immunostaining
[2] = molecular target: T1, human GLRX5, protein used for NMR; experiment: NMR titration; 1H-15N HSQC; 15N-labeled BOLA1 or BOLA3 titrated with unlabeled apo-GLRX5 and vice versa; 15N R1 and R2 relaxation on the final mixtures; degassed buffer N (50 mM phosphate pH 7, 5 mM GSH, 5 mM DTT), 10% D2O, 298 K; details: both partners purified
[3] = molecular target: T2, human NFU1 (residues 57-254) with …; experiment: MST; apo-NFU1, anaerobic
[4] = molecular target: T3, human NFU1 (residues 57-254) with …; experiment: MST; 200 nM NT-647-labeled BOLA1 or BOLA3, titrated with unlabeled chemically reconstituted holo-NFU1 carrying a [4Fe-4S] cluster (200 µM to 6.1 nM); buffer T, 21°C, anaerobic; details: both partners purified
[5] = molecular target: T3, human NFU1 (residues 57-254) with …; experiment: MST; 200 nM NT-647-labeled BOLA1 or BOLA3, titrated with unlabeled apo-NFU1 (200 µM to 6.1 nM); buffer T (50 mM KPi pH 7.4, 150 mM NaCl, 5% glycerol, 0.05 mg/ml BSA, 0.05% Tween20), 21°C, anaerobic; details: both partners purified
[6] = molecular target: T2, human NFU1 (residues 57-254) with …; experiment: MST; holo-NFU1, anaerobic
[7] = molecular target: B1; experiment: SEC; gel filtration in buffer R of holo-GLRX5 alone, co-reconstituted equimolar GLRX5-BOLA1 and holo-GLRX5-BOLA3, recorded at 420 nm and 280 nm; fractions analysed by Coomassie and immunostaining; details: both partners purified

| Binder | stoichiometry N [2] | Kd [3] | Kd [5] | further results |
| --- | --- | --- | --- | --- |
| B1 | – | – | – | stoichiometry N [1]: 2 |
| B2 | 1 | – | – | – |
| B3 | 1 | – | – | – |
| B4 | – | 3570 nM | ~3000 nM | Kd [4]: 800 nM |
| B5 | – | 3590 nM | ~3000 nM | Kd [6]: 2140 nM; binding result [7]: binds |
